Where a chain is given by its changes, count along the chain named. Read-outs that look alike come from different tables or passages of the source.
Legend:
Experiment in all cases: EMSA
[1] = biological target: T1, ΔL1 TEAD DBD (truncated L1 loop) (human, UniProt P28347 28-104, del52-63)
[2] = biological target: TEAD DBD, monomeric SEC fraction (F#61) (human, UniProt P28347 28-104)
[3] = biological target: TEAD DBD, multimeric SEC fraction (F#50) (human, UniProt P28347 28-104)
[4] = biological target: T1, ΔL1 TEAD DBD (truncated L1 loop); remark: listed apart in the source
TEAD DBD (before SEC) = TEAD DBD (before SEC) (human, UniProt P28347 28-104)

B1: 1xGT (dsDNA)
DNA 1: TTCGATACACTTGTGGAATGTGTTTGATTTGTTAGCCCCG
DNA 2: CGGGGCTAACAAATCAAACACATTCCACAAGTGTATCGAA
With B1 the Kd [1] was 7.9 ± 1.4 nM, the binding result [2] was “binds” and the binding result [3] was “binds”.

B2: 2xGT (dsDNA)
DNA 1: B1 DNA 1 with T24G, T25G, G26A, T29G
DNA 2: B1 DNA 2 with A12C, C15T, A16C, A17C
B2 was tested, and the Kd [4] was 8.7 nM, the binding result [2] was “binds” and the binding result (TEAD DBD (before SEC)) was “binds”. B2: binds [3].
